Consider eleven molecules from patent US20250346630A1, “Engineering Peptides Using Peptide Epitope Linker Evolution” (AGENCY FOR SCIENCE, TECHNOLOGY AND RESEARCH, priority 2022, published 2025).

Numbering of substitutions follows the chain as printed. Numbers in names are those of the source.

Test [1] has as its target T1, eIF4E eIF4G interaction site (eIF4E:4G interface) (Homo sapiens, UniProt P06730).
T1 construct: pET11d expression plasmid containing the full-length eIF4E clone; made in house; host or cells: E. coli Rosetta pLysS
As to the kind of experiment: eIF4G^FAM tracer peptide competitive fluorescence anisotropy assay. Particulars: non-reducing conditions, 1:1 binding model, triplicate, Kds > 20,000 denoted non-binders, read-out: Competitive Anisotropy (kd, nM) eIF4AG^FAM.

For the next test, the target named is T2, eIF4E cap-binding site (Homo sapiens, UniProt P06730).
T2 construct: pET11d expression plasmid containing the full-length eIF4E clone; made in house; host or cells: E. coli Rosetta pLysS
The experiment in a line: m^7GTP^FAM competitive fluorescence anisotropy assay. Particulars: read-out: Competitive Anisotropy (kd, nM) m^7GTP^FAM, non-reducing conditions, 1:1 binding model, triplicate, Kds > 20,000 denoted non-binders.

The target of test [2] is T3, LgBiT-eIF4E:SmBiT-VH-DIF^CAP-01 interaction (eIF4E cap-binding site) (Homo sapiens, UniProt P06730).
T3 construct: expressed in transfected cells; host or cells: HEK293
As to the kind of experiment: NanoBIT^CAP complementation assay in HEK293 cells. In kind it is cell-based. Particulars: HEK293 cells permeabilized with sub-CMC digitonin; read-out: IC50 for disruption of LgBiT-eIF4E with SmBiT-VH-DIF^CAP-01 interaction.

Another test has as its target T4, PCNA (Homo sapiens, UniProt P12004).
T4 construct: endogenous in cells; host or cells: HEK293
The experiment in a line: Anti-FLAG immunoprecipitation pull down with PCNA. Type of test: cell-based. Particulars: HEK293 cells. As to the method: Twenty-four hours prior to transfection or drugging, cells were seeded at a cell density of 1000.000 (HEK293) cells per well of a six-well plate (ThermoFisher Scientific). Transfections were performed using Lipofectamine 3000 (ThermoFisher Scientific) with either 2 μg or the indicated amount of plasmid vectors per well according to the manufacturer's instructions. After a 48-hour incubation period, the cell media was then removed and the cells washed with PBS saline. Cells were directly lysed in the wells with 300 μl of lysis buffer containing 20 mM Hepes pH 7.4, 100 mM NaCl, 5 mM MgCl2, 0.5% NP-40, 1 mM DTT, with protease (Roche) and phosphatase (Sigma-Aldrich) inhibitor cocktail sets added as outlined by the manufacturer's protocols. […] Beads were then washed four times with lysis buffer containing no protease or phosphatase inhibitors. This was then followed by the addition of Laemlee buffer (2×) and the beads boiled for 5 min at 95° C. Samples were centrifuged and the supernatant removed for western blot analysis.
Confluent HEK293FT cells were used to generate lentivirus for infection of target cells. Packaging cells were transfected using calcium phosphate transfection as described below. […]
Samples were resolved on midi or mini Tris-Glycine 4-20% gradient gels (Bio-Rad) according to the manufacturer's protocol. […] B-actin levels were measured to ensure equal loading.

In a further test the target is T5, eIF4E (Homo sapiens, UniProt P06730).
T5 construct: pET11d expression plasmid containing the full-length eIF4E clone; made in house; host or cells: E. coli Rosetta pLysS
As to the kind of experiment: Direct fluorescence anisotropy titration of eIF4E against labelled tracers. Particulars: 50 nM tracer, 1:1 binding model.

The target of test [3] is T6, full-length human eIF4E (human, UniProt P06730 2-217).
T6 construct: mature; Used here for the purified full-length protein (anisotropy, ITC, crystals) and for endogenous eIF4E of HEK293 cells in pull-downs; also called cellular eIF4E
As to the kind of experiment: anti-FLAG immunoprecipitation from transfected HEK293 cells, western blot.

For the next test, the target named is T7, LgBiT-eIF4E (UniProt P06730 1-217).
T7 construct: Expressed in HEK293 cells; also called LgBiT fused eIF4E; not shown: LgBiT (18-kDa NanoLuc fragment, Promega NanoBit)
As to the kind of experiment: NanoBit split-luciferase complementation in co-transfected HEK293 cells [CONT.) B].

Test [4] concerns the target T6, full-length human eIF4E. The experiment in a line: competitive fluorescence anisotropy, displacement of m7GTP^FAM from eIF4E.
Test [5] has as its target T8, proliferating cell nuclear antigen (PCNA) (human, UniProt P12004 1-261).
T8 construct: Used here for the purified protein (anisotropy) and for endogenous PCNA of HEK293 and A375 cells in anti-FLAG pull-downs
The experiment in a line: anti-FLAG immunoprecipitation from transfected HEK293 cells, western blot.

A further test deals with T9, GST-tagged eIF4E (UniProt P06730 1-217).
T9 construct: also called GST-eIF4E; not shown: glutathione S-transferase tag of pGEX-6P1
The experiment in a line: GST pull-down on glutathione beads with GST-eIF4E, Coomassie stained SDS-PAGE.

For the molecule `Cn1c[n+]([C@@H]2O[C@H](COP(=O)(O)OP(=O)([O-])O)[C@@H](O)[C@H]2O)c2nc(N)[nH]c(=O)c21` [m^7GDP], the Kd in [1] is more than 20000 nM; at eIF4E cap-binding site it was 201 ± 25.2 nM. The IC50 in [2] worked out at 34500 nM.

For YVRPRLPHMSQFES [scrambled], the “anti-FLAG pull down in complex with PCNA” value with PCNA was “do not”.

Consider m^7GTP^BIOTIN, for which the Kd in test [1] is more than 20000 nM; at eIF4E cap-binding site, 34.7 ± 4 nM.

The molecule m^7GTP^5-FAM [m^7GTP^FAM] gave a Kd on eIF4E of 149 nM.

B1: FLAG-tagged VH-DIF^CAP-01 MA (M104A) (expressed in HEK293 cells) (designed binder)
VH: MSEVQLVESGGGLVQPGGSLRLSSAISGFSISSTSIDWVRQAPGKGLEWVARISPSSGSTSYADSVKGRFTISADTSKNTVYLQMNSLRAEDTAVYYTGRPLPEAGFFTNIPAMVDYRGQGTLVTVSSGAA
notes: also called VH-DIF^CAP-01 mutant (M104A); VH-DIF^CAP-Cntrl; not shown: C-terminal 3x FLAG tag of the pCDNA3.1 vector
Turning to B1, the binding result in the test with full-length human eIF4E [3] is “no binding”.

B2: SmBiT-VH-DIF^CAP-01 E103A (designed binder)
VH: B1 VH with E104A, A105M
notes: also called VH-DIF^CAP-01 EA fused to smBIT; not shown: SmBiT (11-amino-acid NanoLuc fragment)
For the molecule B2, in the test with LgBiT-eIF4E, the binding result is on record as “no binding”.

B3: VH-DiF^CAP-01^Cntrl (purified, His-tagged) (designed binder)
VH: B1 VH
notes: also called VH-DIF^CAP-01 MA (M104A); not shown: C-terminal six-histidine tag from pET-22b(+)
Consider B3, for which the binding result with full-length human eIF4E [4] is recorded as “no binding”.

B4: SmBiT-VH-DIF^CAP-01 M104A (designed binder)
VH: B1 VH
notes: also called VH-DIF^CAP-01 MA fused to smBIT; not shown: SmBiT (11-amino-acid NanoLuc fragment)
For the molecule B4, in the test with LgBiT-eIF4E, the binding result is “no binding”.

B5: VH-S4 (expressed in HEK293 cells) (designed binder)
VH: MSEVQLVESGGGLVQPGGSLRLSSAISGFSISSTSIDWVRQAPGKGLEWVARISPSSGSTSYADSVKGRFTISADTSKNTVYLQMNSLRAEDTAVYYTGRVAKALNSRSPSFVVNTYSSIGFDYRGQGTLVTVSSGAA
For the molecule B5, in the test with full-length human eIF4E [3], the binding result was “binds”.

B6: negative control M4 (FLAG-tagged, expressed in HEK293 cells) (designed binder)
VH: B5 VH with R108S, I120F
notes: not shown: C-terminal 3x FLAG tag of the pCDNA3.1 vector
For the molecule B6, the “anti-FLAG pull down in complex with PCNA” value with PCNA is given as “do not”. Further, the binding result in test [5] was “no binding”.

B7: VH-1C5^Scrambled (designed binder)
VH domain, His-tagged, purified: MSEVQLVESGGGLVQPGGSLRLSSAISGFSISSTSIDWVRQAPGKGLEWVARISPSSGSTSYADSVKGRFTISADTSKNTVYLQMNSLRAEDTAVYYTGRGSVLSVAFKPSVDSFSSFYNTNDYRGQGTLVTVSSGAA
notes: CDR3 loop of VH-1C5 scrambled; also called scrambled VH domain (negative control)
Consider B7, for which, in the test with GST-tagged eIF4E, the binding result is given as “no binding”.
